In PMC11192315 (PLOS Pathogens, 2024):
Substitutions are numbered along the chain they refer to. Names may count otherwise.

B1: JM-1A N59F mutant (antibody, V domains shown)
VH: QVQLQQSGPGLVKPSGTLSLTCAVSGASISSGDWWSWVRQSPGRGLEWIGGIFHSGTTFYSPSLKSRVTMSVDQPKNQFSLHLTSVTAADTAVYYCARMRGIFDYWGQGTLVTVSS
VL: DIQLTQSPSSLSVSVGDRVTITCRASQAISNSLAWYQQKPGKAPKLLLYAASTLESGVPSRFSGSGSGTDFTLTISSLQPEDFATYYCQHYYSTPFFGGGTKVEIK
B2: JM-1A-G32F (antibody, V domains shown)
VH: B1 VH with G32F, F59N
VL: B1 VL

Tests used:
[1] = molecular target: RBD of SARS-CoV-2 Omicron BA.1 (SARS-CoV-2 Omicron BA.1, E484 to A484 | Q493R | Q498R | N501Y); assay: cell-based or functional assay
[2] = molecular target: RBD of SARS-CoV-2 Omicron BA.2 (SARS-CoV-2 Omicron BA.2, D405N | R408S | E484 to A484 | Q493R); assay: cell-based or functional assay

Binder	IC50, neutralisation of pseudotyped lentivirus with Omicron BA.1 spike [1] [µg/mL]	IC50, neutralisation of pseudotyped lentivirus with Omicron BA.2 spike [2] [µg/mL]
B1	0.018	0.011
B2	0.019	0.03
